Measured values published in PMC7865483.

Molecular target: EE-tagged Pank1β (pantothenate kinase 1β), stably overexpressed in HEK293 cells (UniProt Q8TE04)
Experiment: proximity ligation; in situ PLA (Duolink) on fixed HEK293/Pank1β cells with anti-Pank1 and anti-CoAsy, anti-PPCS or anti-PPCDC antibodies; exponentially growing cells in full medium; for Pank1/CoAsy also after 16 h serum starvation, serum starvation + 500 μM H2O2 for 10 min, and serum starvation + 1 μM insulin for 3 h or 6 h

Chain of EE-tagged Pank1β (pantothenate kinase 1β), stably overexpressed in HEK293 cells (Q8TE04 other isoform, or with tags, fused parts or gaps): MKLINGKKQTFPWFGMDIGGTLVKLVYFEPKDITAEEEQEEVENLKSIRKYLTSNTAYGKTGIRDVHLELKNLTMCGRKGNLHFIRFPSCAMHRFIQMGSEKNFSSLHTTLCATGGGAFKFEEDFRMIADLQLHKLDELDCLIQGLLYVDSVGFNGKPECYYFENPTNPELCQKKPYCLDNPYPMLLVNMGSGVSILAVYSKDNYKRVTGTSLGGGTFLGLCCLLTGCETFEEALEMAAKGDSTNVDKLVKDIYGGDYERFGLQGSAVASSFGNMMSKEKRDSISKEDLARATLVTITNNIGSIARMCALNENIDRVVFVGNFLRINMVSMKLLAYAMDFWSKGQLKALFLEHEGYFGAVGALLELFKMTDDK

Q: For “CoA synthase (CoAsy) (from UniProt Q13057 1-564) (enzyme)”, which fold increase of the PLA signal after serum starvation or serum starvation + H2O2, against control cells is on record?
A: Its fold increase of the PLA signal after serum starvation or serum starvation + H2O2, against control cells is 2 fold.
